{"source": "paper PMC7311640", "about": "“The Beta Subunit of Non-bifurcating NADH-Dependent [FeFe]-Hydrogenases Differs From Those of Multimeric Electron-Bifurcating [FeFe]-Hydrogenases” (Frontiers in Microbiology, 2020)", "proteins": {"B1": {"name": "αβ heterodimer of Syntrophus aciditrophicus HydAB (His-HydA with HydB) (complex)", "chain 1": "MEEHMSSINLTVNNIDVEVEAGATLYQAAQKAGVNIPTLCAWFDKDHTPGACRVCVVEVEGMPSLAASCAYPAQNGMKVFTNSDKVRQARKMIVELILASHPQECNFCVRNGNCELQKVAEMVGVKNIRYDSEEFDRDRELDTSSPAIVRDSSKCINCRRCVTVCESIQTVAALSPMNRGYESTVSPAFNLPLNETNCVNCGQCVMACPVGALYEKDQVDEVWKALQDPTRHVVVQEAPAIRAALGEEFGMPPGSLVTGKMIAALRRLGFDKVFDTNFTADLTIIEEGNELLKRVKEGGTLPMITSCSPGWIKFCEHFYPDLLGHLSTCKSPQQMFGALAKTYYAQVSGIDPANIFSVSIMPCTAKKYEAQRPEMKSSGYQDVDVVLTTRELARMIKEAGIDFVNLPDEKYDDPMGEYTGAATIFGATGGVMEAALRTVYAVVTGEELSDLNIMPVRGLEGVKAAAVPVGALGDVKVAVAHGLGNARKLLDEIRAGKSEYAFIEVMCCPGGCVAGGGEPIPTTDEIRMLRAGALYRDDGEVQQYRQSHQSPPVKAVYEKFLKEPLGHKSHELLHTHYVQRGQSLPHLDASPAGEKETVEAMCEKD", "chain 2": "MITVQDIENVIAARGNAREHLMAILRDLENLSGRNVLDVSVLNTLAMKMDLPQSAISGFTSFYTMFSTEPRAKFIIRVCKSGPCHVMGARTIFDVIENHLGIRAGETTADGLFHLEECECLGLCSAAPAMMVNYDMHGNLSESNIKEILDSYSAREPAFKAEYGPGIEGRAVIINNSQQTRRLLENVGKVDPASIESYLQNGGYEAARKAFAEYSPEQVIGIVKDSGLRGRGGAGFPVGVKWSFVPKGEMQKYVICNADEGEPGTFKDRVLMEENPQQLIEGMLLCGYAIGATLGYIYVRGEYRRSIERLQSAIDQARAKGFLGKKIFGSNFDFDIFVKEGGGAYVCGEETSLINSMEGKRGYPRVRPPFPAAAGFMGMPSNVNNVETLSSIPMIVARGADWFKSVGTATCAGTKLYCLSGKVNQTGLVELPMGATLRQMIDTFGGGMKSGSSFKFAQVGGAAGGILGADLMDLPLDIDSTIKAGVTLGSGVVLVCDQETCAVDFLLNVLNFFEHESCGQCIPCKLGTSQLHYVAQKFAMREAEEKDIQLMIDTAKMMKLASLCALGQSPILPIETMIRNFREEFVKHCDPDYECPQCDASLQAYYL", "notes": "HydA, [FeFe]-hydrogenase alpha subunit, Syntrophus aciditrophicus, locus tag SYN_01370; as the chain of m1; HydB, [FeFe]-hydrogenase beta subunit, Syntrophus aciditrophicus, locus tag SYN_01369; as the chain of m2; Unit of the α2β2 heterotetramer found by size exclusion chromatography; also called HydAB fraction; 144 kDa αβ heterodimer; source: E. coli BL21(DE3), co-expressed with maturation genes"}}, "target": "the molecule itself", "assay": "SEC; purified HydAB fraction on Superdex 200 10/300 GL calibrated with gel filtration standards"}
{"protein": "B1", "values": [{"measurement": "stoichiometry N", "value": 2}]}
